The results in this text go back to patent US9844589.

Test [1] concerns the target CON6 gp120 (artificial HIV-1 group M consensus). In words: ELISA endpoint titer (3 fold over background) on CON6 gp120. For orientation: In an ELISA, binding on a coated surface is turned into a signal by an enzyme label.
The target of test [2] is CON6 gp140CF (artificial HIV-1 group M consensus).

Take A32 (antibody): in test [1], the concentration at endpoint titer is less than 0.125 µg/mL.

Substance 2F5 (antibody) showed a concentration at endpoint titer in test [2] of 0.016 µg/mL.

In turn, IgG1b12 (antibody) gave a concentration at endpoint titer in test [1] of less than 0.002 µg/mL.

447 (antibody) registered a concentration at endpoint titer in test [1] of less than 0.003 µg/mL.
